Tested on: MS2 coat protein
Experiment: apparent KD of MS2 coat protein; higher = weaker reporter binding
Conditions: Eterna round: R107
How it was run: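 SNAP-549-labelled MS2 coat protein was titrated onto designed RNA switches that had been transcribed on-chip from Illumina sequencing clusters. Amounts doubled from 0.7 or 1.5 nM to 3 µM in 100 mM Tris-HCl pH 7.5, 80 mM KCl, 4 mM MgCl2, with constant ligand or without. Apparent KD is the median per design of normalised cluster binding-curve fits.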

[1] = input ligand: theophylline 20 uM
[2] = input ligand: tryptophan 2.4 mM
[3] = input ligand: theophylline 2 mM

| Sequence | apparent KD of MS2 coat protein (input ligand: arginine 13.2 mM) [nM] | apparent KD of MS2 coat protein [1] [nM] | apparent KD of MS2 coat protein [2] [nM] | apparent KD of MS2 coat protein (input ligand: none) [nM] | apparent KD of MS2 coat protein [3] [nM] |
| --- | --- | --- | --- | --- | --- |
| AGAUCUUUCGAAAGAAGGAUAAUGGCUGAUACCAGAGACGAAAGUCUCCCUUGGCAGCAGUGCCAACAUGAGGAUCACCCAUGUA [Theophylline A 14] | 110 | 164 | 178 |  |  |
| CCACAUGAGGAUCACCCAUGUAUAGUUGAAGGAGCGAUCAUUAGGUCAGGUAGGUCGCAGCACAUGAGGAUCACCCAUGUCGAAA [DOUBLE!!! :-D #3] | 41.2 | 60.9 | 58.4 | 64.8 | 72.8 |
| UUCAGCUAGUCGGCCGCCACUACAUGAGGAUCACCCAUGUUCCUAAAACACUGCUUCGGCAGUGGUAGGACCGGGACUAGCUGAG | 41.1 | 48.5 | 256 | 31.7 | 42 |
| CAAGAACAGCCGAAUCUCGGCAGCUGAGAAGGAGCGCGAGAAGUCGCAGGUAGGUCGCUCAGGAAUACAUGAGGAUCACCCAUGU [Usaronen] | 32.4 | 45.9 | 27.9 | 28.4 | 46.8 |
| AAUGUAUGGCACAUGAGGAUCACCCAUGUGCGAGGACCGGUACGGCCGCCACUCGGUCCUGGGAUCUUACCACUAUACAUUAAUG [XTryp A #21] | 10.2 | 14.8 |  |  | 11.3 |
| GAUGAACUAUUUGAUACCAGACUACAUGAGGAUCACCCAUGUGAGUUUAUACUUCAGUCAGUCCCUUGGCAGCAAAUAGUUUAUC [XTheo B #6] | 38.3 | 60.9 | 42.1 |  |  |
| UGUAUGUGAUCUGAUACCAGCUAAUAAAGCUUGAGGAUCACCCAAGUGGAGCGGAAACGCAGCCCUUGGCAGCAGAUCGCAUACU [Denovo 8 #StaticStem #AlternativeMS2] | 189 | 103 | 224 | 169 | 9.93 |
| GAUGAACUAUAUGAUACCAGACAACAUGAGGAUCACCCAUGUGUAAGUCGUCCUCUGCCUGUCCCUUGGCAGCGUAUAGUUUAUC [XTheo B #18] | 43.2 | 76.4 | 23.3 |  |  |
| GAAUUUAUUUGAAGGAGCGUCGAAAAUGGGUAAACAUGAGGAUCACCCAUGUAAAGGGAACGACAGGUAGGUCGCAAAUGGAUUC [AstromonsSSArgB#27] | 126 | 259 | 188 | 206 | 224 |
| ACCUGUACGAAAAGUGCAGGACACGGAAUACGAGGACCGGUACGGCCGCCACUCGGAAACCUGAGGAUCACCCUGGUAAACCGUG [TrypAS 12 #AlternativeMS2 #Zipper #StaticStem] | 26.9 | 33.5 | 23.3 | 25.2 | 31.1 |
| GGGCAAGAGGGAAGGAGCGUCGGCUGAGUAACAUGAGGAUCACCCAUGUAGCACAUGGUGUGGCAGGUAGGUCGCCCUCUGCCCU [SS-ArgB8] | 56.1 | 201 | 118 | 103 | 178 |
| UCGCUCGCAGAAAUGCGAGCGAGUUGCGAUACCAGCCCGGAAACGGGCCCUUGGCAGCGCACAUGAGGAUCACCCAUGUCAUGUU [Exclusion - Theophylline A Attempt #2 (HarryS)] | 17.3 | 24.7 | 18.1 |  |  |
| CAUCGUCGGUCGGCCGCCACUACUGGACAUGAGGAUCACCCAUGUGGCCCGCUGUAUUAACCGCGUAGGACCGGGACGGGAGGUA [theeternabot_exclusion_MS2_Trp_B_4] | 24 | 48.6 |  |  | 39.3 |
| UGUAUGUGAUCUGAUACCAGUCCAACUGGUAAAACCUGAGGAUCACCCAGGUAAAAUUGGGACCCUUGGCAGCAGAUCGCAUACU | 134 | 130 | 177 | 183 | 16.1 |
| CACGGACGAGUGGAUCACCCUCGUAAUAACCGAGGACCGGUACGGCCGCCACUCGAAAACCGUGACCUGUACGAAAAGUGCAGGA | 56.1 | 210 | 73.2 | 88.7 | 531 |
| GUGGAGACACGAGAUACCAGUCUCUAUAACAUGAGGAUCACCCAUGUAAUGCUCCUCAGGGACCCUUGGCAGCUCAGUAUGAUGA [Exclusion - Theophylline B] | 34.8 | 54.5 | 35.7 |  |  |
| GGUGGUGGGACGGAUACCAGCCACCGCGGCAACGCAACAUGAGGAUCACCCAUGUUGGGUGGCCCUUGGCAGCUGUCCUGCGGCG [#1 Same State - Theophylline B Attempt #25 (HarryS)] | 12.6 | 18.5 | 12.7 |  |  |
| CUUGAGACAUGAGGAUCACCCAUGUCCGAAGGAGCGUGCGAAAGCACAGGUAGGUCGCGGACAUGAGGAUCACCCAUGUGAGCGA [EAA NP+V+V2 #7 DOUBLE] | 13.8 | 25.9 | 22 | 21.8 | 40.2 |
| UGAUCCUACAGAGAUACCAGUGCCACUGAGUGACCAGACACAUGAGGAUCACCCAUGUAACACCCUUGGCAGCUCAACUAAAGGG [Same State Theophylline B GF17] | 16.2 | 20.5 | 21.4 |  |  |

| Sequence | apparent KD of MS2 coat protein (input ligand: arginine 13.2 mM) [nM] | apparent KD of MS2 coat protein [1] [nM] | apparent KD of MS2 coat protein [2] [nM] | apparent KD of MS2 coat protein (input ligand: none) [nM] | apparent KD of MS2 coat protein [3] [nM] |
| --- | --- | --- | --- | --- | --- |
| ACUAGUUGUGCAGAUACCAGGCAUGAGGAUCACCCAUGUUUGGGAUGUUCGCAUCUUCCUGUCCCUUGGCAGCUGUACAUCUAGA [Omei Theo B Exc v6] | 49.9 | 167 | 150 | 48.5 | 31.5 |
| AGCGUAUAGACGGAUACCAGCGCCAAUUAACAUGAGGAUCACCCAUGUAGUGUGGGUGGACGCCCUUGGCAGCCGAGUAUAGGUA [Exclusion - Theophylline B / A] | 57.3 | 274 | 250 |  |  |
| CCUUAAUAUGGAAGGAGCGCGCUAACAUGAGGAUCACCCAUGUAAAGGGUUUUAGGCUUAGCGCAGGUAGGUCGCCGUAAGAACC [#09 Exclusion - Arginine B] | 288 | 266 | 252 | 249 | 327 |
| GUACACUAGUCGGCCGCCACUGUUACAUGAGGAUCACCCAUGUAGGAUCACCCAUGACAUGAGGAUAGGACCGGGACGCAUGAGG [Exclusion Tryptophan B] | 56.8 | 56.1 |  |  | 69 |
| AGCGACAUGCGUGAUACCAGCUACAUGAGGAUCACCCAUGUAAGUAGGAAACUACUGUGUAGCCCUUGGCAGCAUAGUGCAUGUC [Exclusion - Theophylline B (Freestyle 22)] | 13.4 | 23.5 | 15 |  |  |
| AUACAUGAGGAUCACCCAUGUAUAGAUGAAGGAGCGACCAGAGGGUCAGGUAGGUCGCAUCACAUGAGGAUCACCCAUGUAUCGA [DOUBLE!!! :-D #8] | 33.6 | 53 | 47.1 | 56.8 | 67.2 |
| GGUAUGUAUUCGGAAACGAAUGCAUACCAACGAGGACCGGUACGGCCGCCACUCGCGGCUGAUCAACAUGAGGAUCACCCAUGUA [Ex Tryptophan A 4] | 19.4 | 33 | 28.4 | 24.8 | 31.5 |
| UAUGCACAUGAGGAUCACCCAUGUAUGGAAGGAGCGGUGAAUGAACCAGGUAGGUCGCCAUGGUGAGGAUCAUCUAUGUAUUCGU [Exclusion - Arginine A (Freestyle 8)] | 49.1 | 101 | 71.7 | 81 | 117 |
| AAAAUCCUACCUGAGGAUCACCCAGGUGAAGGAGCGCCCGAAAGGGCAGGUAGGUCGCACCUGAGGAUCACCCUGGUAACCUAAA [ArgEX 11 #DoubleMS2 #OpenEnded #AlternativeMS2] | 28.1 | 69 | 38.6 | 48 | 51.7 |
| AAACUGGGUGUAAAAUAAAUAAUCACUGAUACCAGACUAUAGUAUGUCCCUUGGCAGCAGAAACAUGAGGAUCACCCAUGUAAUA [JR_Nu_ExcTheophyA_Sub024] | 22.3 | 23 | 25.2 |  |  |
| GAGUCCGCGGCGGCCGCCACUCGCGAUAUAACAUGAUAUCAGGACAUGAGGAUCACCCAUGUCACGAGGACCGGGCCGAUCCUCA [Same State Typptophan B GF 5] | 17 | 49.2 |  |  | 35.8 |
| UCGCCCAGGUAGGAUUGAUGGGAUAUGGAAGGAGCGCUGAUGCCAGCAGGUAGGUCGCCAACGGACAUGAGGAUCACCCAUGUAC [Same State - Arginine A (Freestyle 5)] | 16.5 | 34.6 | 25.2 | 18.7 | 28.3 |
| GCUAGGUCUACGGCCGCCACUAGACGUGGGUUUAACAUGAGGAUCACCCAUGUGCUACAGGCGCAUAGGACCGGGUAGACCUAGC [SSTB NP+V+V2 #10 +-Same Structure] | 532 | 713 | 51.3 | 414 | 928 |
| ACAUGAGGAUCACCCAUGUUUGAUGUUCCUCGAGGACCGGUACGGCCGCCACUCGAACGAGUGGCGCGCGAGUGCGCACUCGCGC [aSa] | 11.3 | 20.1 |  |  | 13 |
| AGAUUUAUUCUGACCGGGCUCAUUCCUGAAGGAGCGCAGAACAAUGCAGGUAGGUCGCAGGACAUGAGGAUCACCCAUGUCAGGC [Inmainzais] | 15.5 | 30.2 | 24.6 | 22.1 | 27.2 |
| GGGUUACUCUAUGAUACCAGUUCCAUGCCGAAACCUGUGUACAUGAGGAUCACCCAUGUGAACCCUUGGCAGCAUUAAUCAACUG [theeternabot_exclusion_MS2_Theo_B_35] | 51.5 | 163 | 69.5 |  |  |
| UUGGGUUUGUGAAGGAGCGGGUAUGUUUUAUAGUGGAUCCUAACAUGAGGAUCACCCAUGUCCCAGGUAGGUCGCGCGGGUUUGG [12.T] | 54.4 | 203 | 117 | 78.3 | 149 |
| GAGUAAACUACGGCCGCCACUCAAGGAGAUCAAUAGAUCAUCGACAUGAGGAUCACCCAUGUAAAGAGGACCGGGUAGAUCCUUA [Same State Typrtophan B GF1] | 97.8 | 98.9 | 100 | 214 | 362 |
| UGUACCAUGUCGGCCGCCACUCAUGAUAAACAUGAGGAUCACCCAUGUGGCGUCAAAGACGCUAUGAGGACCGGGACAUGGUACU [TryBS Zipper 3 #StaticStem #Zipper] | 15.3 | 19.9 |  |  | 15.7 |
